First the molecules themselves.
B1: PRA, C-terminal domain of MYH9 (recombinant, wild type) K1673A (protein)
chain: MRELEDTRASREEILAQAKENEAKLKSMEAEMIQLQEELAAAERAKRQAQQERDELADEIANSSGKGALALEEKRRLEARIAQLEEELEEEQGNTELVNDRLKKANLQIDQINTDLNLERSHAQKNENARQQLERQNKELKVKLQEMEGTVKSKYKASIAALEAKIAQLEEQLDNETKERQAACKQVRRAEKKLKDVLLQVDDERRNAEQYKDQADKASTRLKQLKRQLEEAEEEAQRANASRRKLQRELEDATETADAMNREVSSLKNKLRRGDLPFVVPRRMGRKGAGDCSDEEVDGKADGAEAKAAE
B2: PRA, C-terminal domain of MYH9 (recombinant, wild type) E1670A (protein)
chain: MRELEDTRASREEILAQAKANEKKLKSMEAEMIQLQEELAAAERAKRQAQQERDELADEIANSSGKGALALEEKRRLEARIAQLEEELEEEQGNTELVNDRLKKANLQIDQINTDLNLERSHAQKNENARQQLERQNKELKVKLQEMEGTVKSKYKASIAALEAKIAQLEEQLDNETKERQAACKQVRRAEKKLKDVLLQVDDERRNAEQYKDQADKASTRLKQLKRQLEEAEEEAQRANASRRKLQRELEDATETADAMNREVSSLKNKLRRGDLPFVVPRRMGRKGAGDCSDEEVDGKADGAEAKAAE
B3: PRA, C-terminal domain of MYH9 (recombinant, wild type) E1670A; K1673A; E1679A; I1683A (protein)
chain: MRELEDTRASREEILAQAKANEAKLKSMAAEMAQLQEELAAAERAKRQAQQERDELADEIANSSGKGALALEEKRRLEARIAQLEEELEEEQGNTELVNDRLKKANLQIDQINTDLNLERSHAQKNENARQQLERQNKELKVKLQEMEGTVKSKYKASIAALEAKIAQLEEQLDNETKERQAACKQVRRAEKKLKDVLLQVDDERRNAEQYKDQADKASTRLKQLKRQLEEAEEEAQRANASRRKLQRELEDATETADAMNREVSSLKNKLRRGDLPFVVPRRMGRKGAGDCSDEEVDGKADGAEAKAAE
B4: PRA, C-terminal domain of MYH9 (recombinant, wild type) E1679A (protein)
chain: MRELEDTRASREEILAQAKENEKKLKSMAAEMIQLQEELAAAERAKRQAQQERDELADEIANSSGKGALALEEKRRLEARIAQLEEELEEEQGNTELVNDRLKKANLQIDQINTDLNLERSHAQKNENARQQLERQNKELKVKLQEMEGTVKSKYKASIAALEAKIAQLEEQLDNETKERQAACKQVRRAEKKLKDVLLQVDDERRNAEQYKDQADKASTRLKQLKRQLEEAEEEAQRANASRRKLQRELEDATETADAMNREVSSLKNKLRRGDLPFVVPRRMGRKGAGDCSDEEVDGKADGAEAKAAE
B5: PRA, C-terminal domain of MYH9 (recombinant, wild type) I1683A (protein)
chain: MRELEDTRASREEILAQAKENEKKLKSMEAEMAQLQEELAAAERAKRQAQQERDELADEIANSSGKGALALEEKRRLEARIAQLEEELEEEQGNTELVNDRLKKANLQIDQINTDLNLERSHAQKNENARQQLERQNKELKVKLQEMEGTVKSKYKASIAALEAKIAQLEEQLDNETKERQAACKQVRRAEKKLKDVLLQVDDERRNAEQYKDQADKASTRLKQLKRQLEEAEEEAQRANASRRKLQRELEDATETADAMNREVSSLKNKLRRGDLPFVVPRRMGRKGAGDCSDEEVDGKADGAEAKAAE

The test has as its target Mab2-5G2, monoclonal anti-idiotypic antibody recognizing an antibody that specifically interacts with PRRSV glycoprotein 5 (GP5). Put plainly: ELISA. As to conditions: chain shown with the change; Mab2-5G2 as plate-coating protein; anti-PRA rabbit serum for detection; parent: est. 1.6; read off a plot. (An ELISA detects its analyte on a solid surface through an enzyme-linked reagent.)
As for B1, the response was 0.4 OD450. The figure for B2 is 0.46 OD450; for B3 it is 0.41 OD450. As to B4, the response was found to be 0.36 OD450.

As to B5, the response was 0.61 OD450.

The record behind these values is PMC7019770.
